For orientation: IC50 means the concentration at which inhibition is half-maximal. High values mean weaker potency in that assay, low ones greater potency in that assay. What is called EC50 is the concentration that produces a half-maximal response. One may read the koff as the rate constant with which the complex falls apart. Low readings indicate a long-lived complex, high ones a short-lived complex. The Kd is the equilibrium constant for the complex coming apart. The low end stands for higher affinity, the high end for lower affinity. The term kon denotes the rate constant with which the complex forms. Low readings indicate slower complex formation, high ones faster complex formation.

Residue numbers refer to the chain shown, from its start. Numbers in names are those of the source. Read-outs that look alike come from different tables or passages of the source.

Assay [1] addresses T1, human CXCL13 (human, UniProt O43927 23-109).
T1 construct: also called huCXCL13; rhCXCL13
T1 sequence (looked up): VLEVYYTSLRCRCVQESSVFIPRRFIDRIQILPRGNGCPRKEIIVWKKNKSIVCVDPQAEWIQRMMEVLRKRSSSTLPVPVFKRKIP
As to the kind of experiment: cell-based blocking ELISA, CXCL13 to CHO-K1-CXCR5. The procedure:
This example tested the blocking of the anti-CXCL13 chimeric antibodies to CHO-K1-CXCR5 cells. Briefly, 5×10⁴ CHO-K1-CXCR5 cells were plated in 96-well plate with 100 μl of culture medium and incubated at 37° C. overnight. Cells were fixed with 100 μl of 2% PFA at RT for 1 hr after washing with PBS for 1 time. Samples were blocked with 1% BSA in PBST for 1 hr at RT. Antibodies were serial diluted from 50 μg/ml by 3-fold with 1% BSA/PBST and pre-incubated with equal volume of 0.3 μg/ml human CXCL13 for 30 min at RT. 100 μl of antibody-antigen complex was transferred into each cell wells for 30 min at RT. Samples were washed with 1×PBST for 3 times and 100 μl of 3 μg/ml of human Mab5261 antibody was added into each well to capture human CXCL13 and anti-human Fc-HRP was used to indirectly detect human CXCL13 when it bound to CHO-K1-CXCR5 cells.
Then read at 450 nm. […] Among all clones, 415A3D1, 64C10G1, 1H3A11, 414D10F5, 411A11E9, 21H12D9, 71F4A3, 329F2E1 show completely blocking activity and 408E3F3, 19H7E10, 339A6E7 appeared to be partial blockers.
(An ELISA detects its analyte on a solid surface through an enzyme-linked reagent.)

The target in assay [2] is T1, human CXCL13. As to the kind of experiment: ELISA, coated antigen, chimeric IgG1. The procedure: (§1) Elisa based binding assay. […] Briefly, 100 μl of human CXCL13 or cynomolgus CXCL13 was coated at 0.5 μg/ml overnight and then blocked by 200 μl of 5% BSA in PBS. Serial diluted antibodies were incubated with the coated antigen for 30 min at RT. The resulting plates were washed with PBS/T and incubated with goat anti-human IgG Fc-HRP for 30 min RT. The plates were developed with TMB substrate after washing with 1×PBST for 5 times and reaction stopped with 1N HCl and analyzed by spectrophotometer at OD 450-630 nm.

The target in the next assay is T2, cynomolgus CXCL13 (cynomolgus, UniProt H6WS58 23-109).
T2 construct: also called cynoCXCL13; Cyno CXCL13
T2 sequence: T1 sequence (looked up) with S8H, L32S, I52V, M65I, V68M, R72K, L77P
The experiment in a line: ELISA, coated antigen, chimeric IgG1. The procedure:
as §1

The target of assay [3] is T1, human CXCL13. As to the kind of experiment: ELISA, huCXCL13 coated on the plate, chimeric IgG1 titrated, OD450. An outline of the steps:
(§2)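 EC50 values were obtained by titrating the antibodies. For this, IgG1 antibodies in serial dilution were bound for 30 min at room temperature to plates that had been coated overnight with human CXCL13 (100 μl at 0.5 μg/ml) and blocked with 200 μl 5% BSA in PBS. Detection used goat anti-human IgG Fc-HRP for 30 min at room temperature.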

Assay [4] addresses T1, human CXCL13. The experiment in a line: ELISA, huCXCL13 coated on the plate, full length humanized IgG1 titrated, OD450. A digest of the protocol: as §2
In assay [5] the target is T1, human CXCL13. The experiment in a line: SPR Biacore T200. The procedure:
(§3) In the second approach, mutations were carried out by multiple libraries including 4 different sub libraries, such as saturated mutation libraries by CDR walking for CDR L1, CDR L3, CDR H3 or CDR L2, CDR H1, CDR H2 and saturated mutation libraries by three aa mutated continuously for CDR H3 or CDR L3. After finishing construction of phage sub libraries, antigen CXCL13 screening followed. Antibodies of these sequences were generated, and affinity testing was performed by Biacore T200. To further optimize the antibodies, the lead clones were then back mutated to its humanized counterpart one aa by one aa. Sequences were generated and synthesized for antibodies. Affinity was tested by Biacore T200.

Assay [6] has as its target T1, human CXCL13. The experiment in a line: SPR Biacore T200. The text has this: In the first approach, mutations were chosen to target the hotspots in LCDR1, HCDR2 and HCDR3. Usually, CDR3 contributes most to antigen binding and heavy chain is more important than light chain for antigen binding. Moreover, LCDR1 is important for antigen binding. For the first trial, random mutations were targeted to hotspots in LCDR1, HCDR2 and HCDR3. Eliminate hotspots that code for conserved and buried amino acids in CDRs. […] After finishing construction of phage library, antigen CXCL13 screening was followed. Antibodies of these sequences were generated, and affinity testing was performed by Biacore T200.
The source holds these as a separate data set.

The target of assay [7] is T1, human CXCL13. As to the kind of experiment: SPR Biacore T200. The procedure: as §3
The source holds these as a separate data set. On the technique in general: Surface plasmon resonance follows binding to a sensor surface in real time, without labels.

Assay [8] concerns the target T1, human CXCL13. The experiment in a line: ELISA, huCXCL13 coated on the plate, full length humanized IgG1 titrated, OD450. The source holds these as a separate data set.

B1: 21H12D9 chimeric human IgG1 antibody (antibody, V domains shown)
VH: EVQLQQSGPVLVRPGASVKMSCKASGYTFTDYYMNWVKQSHGKSLEWIGVINPNNGGTTYKEKFKGKATLTVDKSSGTAYMELNSLTSEDSAVYYCARDDYDAGYWGQGTTLTVSS
VL: DIVMTQFQKFMSTTVGDRVSITCKASQNVDTAVAWYQHKPGQSPKLLIYSASHRYTGVPDRFTGSGSGTDFTLTISNVQSEDLADYFCQQYTDFPLTFGAGTKLELK
notes: Chimeric human IgG1
On to B1, for which the IC50 with human CXCL13 [1] is 1.89 µg/mL. The concentration giving a half-maximal response (EC50) was 0.0536 µg/mL with human CXCL13 [2] and 0.0488 µg/mL with cynomolgus CXCL13.

B2: 329F2E1 chimeric human IgG1 antibody (antibody, V domains shown)
VH: EVKLLQSGGGLVQPGGSLKLSCAASGIDFSRYWMSWVRRAPGKGLEWIGEINPDSSTINYAPSLKDKFIISRDNAKNTLYLQMSKVRSEDTALYYCARQDDYDYYAMDYWGQGTSVTVSS
VL: DIVMTQSHKFMSTSVGDRVSITCKASQDVSTGVAWYQQKPGQSPKLLIYSASYRYTGVPDRFTGSGSRTDFTFTISSVQTEDPAVYYCHQYYTIPLTFGAGTELELK
notes: Chimeric human IgG1
B2: half-maximal inhibition in the assay with human CXCL13 [1] (IC50) required 3.55 µg/mL. In addition, the EC50 in the assay with human CXCL13 [2] stood at 0.0511 µg/mL; in the assay with cynomolgus CXCL13, 0.0416 µg/mL.

B3: 414D10F5 chimeric human IgG1 antibody (antibody, V domains shown)
VH: EVQLAESGGGLVQPGRSLKLSCSASGFTFSDYYMAWFRQAPPKGLEWVASISYDGGDSFYRDSVKGRFTISRDNAKSSLYLQMDSLRSEDTATYYCTTEEDYSGSFPDYWGQGVMVTVSS
VL: DIQMTQSPSFLSASVGDRVTINCKASQNINKYLNWYQQKLGEAPKRLIYDTNNLQAGIPSRFSGSGSGTDYTLTINSLQPEDFATYFCLQHNSLYTFGGGTKLELK
notes: Chimeric human IgG1
The molecule B3 yielded an IC50 in the assay with human CXCL13 [1] of 1.26 µg/mL. Further, the concentration for a half-maximal effect (EC50) with human CXCL13 [2] came out at 0.0628 µg/mL; with cynomolgus CXCL13 it was 1.19 µg/mL.

B4: 64C10G1 chimeric human IgG1 antibody (antibody, V domains shown)
VH: EVQLVESGGGLVKPGGSLKLSCAASGFTFSSYAMSWVRQTPEKRLEWVATISDGGSDAYYPDNVKGRFTISRDNAKNNLYLQMSHLKSEDTAMYYCARDYYGSGYEDSPMDYWGQGTSVTVSS
VL: DIQMTQSPSSLSASLGGKVTITCKASQDINKYIAWYQHKPGKGPRLLIHYTSTLQPGIPSRFSGSGSGRDYSFSISNLEPEDFATYYCLQYDNLYTFGGGTKLEIK
notes: Chimeric human IgG1; also called chimeric 64C10G1
Molecule B4 gave a 50% inhibitory concentration (IC50) with human CXCL13 [1] of 1.1 µg/mL. For the same molecule, the EC50 with human CXCL13 [3] turned out to be 0.0305 nM; in the assay with human CXCL13 [2] it was 0.0401 µg/mL; with cynomolgus CXCL13, 0.0563 µg/mL.

B5: 1H3A11 chimeric human IgG1 antibody (antibody, V domains shown)
VH: B4 VH with A58T, G104S, S108Y, P109A
VL: B4 VL with A34T, F83I
notes: Chimeric human IgG1
With B5, the 50% inhibitory concentration (IC50) in the assay with human CXCL13 [1] is 1.19 µg/mL. In addition, the concentration giving a half-maximal response (EC50) was 0.0553 µg/mL in the assay with human CXCL13 [2] and 0.144 µg/mL with cynomolgus CXCL13.

B6: 64C10G1-VH1VL3 (D53E, D107E) humanized IgG1 (antibody, V domains shown)
VH: EVQLVESGGGLVQPGGSLRLSCAASGFTFSSYAMSWVRQAPGKGLEWVATISEGGSDAYYPDNVKGRFTISRDNAKNSLYLQMNSLRAEDTAVYYCARDYYGSGYEESPMDYWGQGTLVTVSS
VL: DIQMTQSPSSLSASVGDRVTITCKASQDINKYIAWYQQKPGKAPKLLIHYTSTLQPGIPSRFSGSGSGTDFTFTISSLQPEDFATYYCLQYDNLYTFGGGTKLEIK
notes: Full length IgG1, human gamma 1 and kappa constant domains
B6 registered an EC50 with human CXCL13 [4] of 0.0664 nM. This lies in the picomolar range.

B7: 71F4A3-VH1VL1 (Hz71F4) (D54E) humanized IgG1 (antibody, V domains shown)
VH: EVQLVESGGGLVQPGGSLRLSCAASGIDFSRYWMSWVRQAPGKGLEWVAEINPESSTINYAPSLKDRFTISRDNAKNSLYLQMNSLRAEDTAVYYCARQDDYEYYAMDYWGQGTTVTVSS
VL: DIQMTQSPSSLSASVGDRVTITCKASQDVNTGVAWYQQKPGKAPKLLIYSASYRYTGVPSRFSGSGSGTDFTFTISSLQPEDIATYYCQQYYSTPLTFGGGTKLEIK
notes: Full length IgG1, human gamma 1 and kappa; also called Hz71F4A3
Turning to B7, in the assay with human CXCL13 [5], the “apparent Kd (pooled screen)” value came out at 2.58 nM, the “apparent koff (pooled screen)” value was found to be 0.000645 s⁻¹ and the “apparent kon (pooled screen)” value worked out at 250000 M⁻¹ s⁻¹. Besides, in the assay with human CXCL13 [6], the “apparent kon (pooled screen)” value is 377000 M⁻¹ s⁻¹. For the same molecule, in the assay with human CXCL13 [7], the “apparent koff (pooled screen)” value was 0.00126 s⁻¹. In addition, the “apparent EC50 (pooled screen)” value with human CXCL13 [8] worked out at 0.108 nM.

B8: 005-3-23 (antibody, V domains shown)
VH: B7 VH with D100E, M107L
VL: B7 VL with A34Y, Y91G
As for B8, the dissociation rate constant (koff) with human CXCL13 [7] is 0.000403 s⁻¹.

B9: 005-2-45 (antibody, V domains shown)
VH: B7 VH with Y102T, E103R
VL: B7 VL
For B9, the off-rate constant (koff) with human CXCL13 [7] came out at 0.000776 s⁻¹.

B10: 71F4A3-VH1VL2 (D54E) humanized IgG1 (antibody, V domains shown)
VH: B7 VH
VL: B7 VL with L78V
notes: as for B6
On to B10, for which, in the assay with human CXCL13 [8], the EC50 came to 0.0961 nM.

B11: 005-3-18 (antibody, V domains shown)
VH: B7 VH with A106T
VL: B7 VL with A25V, Y92W
In the case of B11, in the assay with human CXCL13 [5], the Kd was determined as 1.24 nM, the koff was 0.000153 s⁻¹ and the kon amounted to 124000 M⁻¹ s⁻¹. This molecule displayed a koff with human CXCL13 [7] of 0.000158 s⁻¹.

B12: 415A3D1 chimeric human IgG1 antibody (antibody, V domains shown)
VH: EVKLLESGGGLVQAGGSMRLSCGAFGFTVTDFYINWIRQPAGKAPEWLGFMRNKANGYTTEYNPSVKGRFTISRNNTQNMPYLQMNTLRTEDTAIYYCARSRYNADDYYVGVMDVWGQGASVTVSS
VL: DIQMTQFPASLSASLGETVSIECLASEDIYNNLAWYQQKPGKSPQLLIYYTNSLQDGVPSRFSGTGSGTQYSLKINSLESEDAATYFCLQDSEYPWTFGGGTKLKLK
notes: Chimeric human IgG1; label 415A3D1 read as clone 415A3D1F4
For B12, the IC50 with human CXCL13 [1] came out at 0.985 µg/mL. Also, the figures for the EC50 with human CXCL13 [2] and with cynomolgus CXCL13 were 0.0729 µg/mL and 0.0469 µg/mL, respectively.

B13: 411A11E9 chimeric human IgG1 antibody (antibody, V domains shown)
VH: EVQLVESGGGLVQPGGSLKLSCVVSGFTFSDYYMAWVRQTPTKGLEWVASINYDGGDTYYRDSVKGRFTVSRNNAKSSLFLQMDSLRSEDTATYYCKTEEDYDGSYVMDAWGQGASVIVSS
VL: DIQMTQSPSFLSASVGDRVTISCKASQNINKELTWYQQKLGKAPKRLIYNTNILQTGIPSRFSGSGSNTDYTLTISSLQPEDFATYFCLQQSSLYTFGAGTKLELK
notes: Chimeric human IgG1
In the assay with human CXCL13 [1], B13 showed an IC50 of 1.71 µg/mL. The concentration for a half-maximal effect (EC50) is 0.0485 µg/mL in the assay with human CXCL13 [2] and 0.1 µg/mL with cynomolgus CXCL13.

For the origin of these results see patent US20210284724A1 (I MAB BIOPHARMA US, published 2021).
